# Experimental data as given in the Immune Epitope Database (IEDB).
# Experiments:
# HLA-B*07:02 [1] = test: IEDB peptide-MHC binding, purified MHC/direct/fluorescence; filed as Kd, often an IC50 or EC50 that approximates it; ≥ and ≤ were set here for values at or beyond the usual limits of such assays
# HLA-B*44:02 = test: as above
# HLA-B*57:01 = test: as above; conditions: source organism: Mycobacterium tuberculosis str. Haarlem
# HLA-B*27:05 = test: as above
# HLA-A*31:01 [2] = test: as above
# HLA-A*03:01 = test: as above
# HLA-B*39:01 = test: as above; conditions: source organism: Mycobacterium tuberculosis str. Haarlem
# HLA-B*46:01 = test: as above
# HLA-A*02:01 [3] = test: as above
# HLA-B*58:01 = test: as above
# HLA-A*01:01 = test: as above
# HLA-B*15:01 [4] = test: as above
# HLA-C*12:03 = test: as above; conditions: source organism: Homo sapiens
# HLA-C*07:02 = test: as above
# HLA-A*02:01 [5] = test: IEDB peptide-MHC binding, purified MHC/competitive/radioactivity; ≥ and ≤ were set here for values at or beyond the usual limits of such assays
# HLA-A*24:02 [6] = test: IEDB peptide-MHC binding, purified MHC/direct/fluorescence; filed as Kd, often an IC50 or EC50 that approximates it; ≥ and ≤ were set here for values at or beyond the usual limits of such assays
# HLA-C*05:01 = test: as above
# HLA-C*15:02 = test: as above
# HLA-A*69:01 = test: as above
# HLA-A*11:01 [7] = test: as above
# HLA-B*08:02 = test: as above; conditions: source organism: Giardia lamblia ATCC 50803
# HLA-B*15:09 = test: as above
# HLA-B*18:01 = test: as above; conditions: source organism: Giardia lamblia ATCC 50803
# HLA-B*40:01 = test: as above
# HLA-B*08:01 = test: IEDB peptide-MHC binding, purified MHC/competitive/fluorescence; ≥ and ≤ were set here for values at or beyond the usual limits of such assays
# HLA-A*02:06 = test: IEDB peptide-MHC binding, purified MHC/competitive/fluorescence; filed as Kd, often an IC50 or EC50 that approximates it; ≥ and ≤ were set here for values at or beyond the usual limits of such assays; conditions: source organism: Burkholderia orbicola
# HLA-A*02:01 [8] = test: as above
# HLA-A*26:01 = test: IEDB peptide-MHC binding, purified MHC/direct/fluorescence; filed as Kd, often an IC50 or EC50 that approximates it; ≥ and ≤ were set here for values at or beyond the usual limits of such assays; conditions: source organism: Vibrio vulnificus CMCP6
# HLA-C*14:02 = test: as above
# HLA-B*07:02 [9] = test: IEDB peptide-MHC binding, purified MHC/competitive/fluorescence; filed as Kd, often an IC50 or EC50 that approximates it; ≥ and ≤ were set here for values at or beyond the usual limits of such assays; conditions: source organism: Yersinia pestis Nepal516
# HLA-B*51:01 = test: as above; conditions: source organism: Yersinia pestis Nepal516
# HLA-A*02:01 [10] = test: IEDB peptide-MHC binding, purified MHC/competitive/fluorescence; ≥ and ≤ were set here for values at or beyond the usual limits of such assays; conditions: source organism: Zaire ebolavirus
# HLA-A*24:02 [11] = test: as above; conditions: source organism: Zaire ebolavirus
# HLA-B*15:01 [12] = test: as above; conditions: source organism: Zaire ebolavirus
# HLA-A*68:02 = test: IEDB peptide-MHC binding, purified MHC/competitive/fluorescence; filed as Kd, often an IC50 or EC50 that approximates it; ≥ and ≤ were set here for values at or beyond the usual limits of such assays; conditions: source organism: Campylobacter jejuni subsp. jejuni 81-176
# HLA-C*06:02 = test: IEDB peptide-MHC binding, purified MHC/direct/fluorescence; filed as Kd, often an IC50 or EC50 that approximates it; ≥ and ≤ were set here for values at or beyond the usual limits of such assays; conditions: source organism: Influenza A virus (A/chicken/Fujian/25/00(H9N2))
# HLA-B*83:01 = test: IEDB peptide-MHC binding, purified MHC/competitive/fluorescence; filed as Kd, often an IC50 or EC50 that approximates it; ≥ and ≤ were set here for values at or beyond the usual limits of such assays; conditions: source organism: Listeria monocytogenes serotype 4b str. CLIP 80459
# HLA-A*11:01 [13] = test: as above; conditions: source organism: Listeria monocytogenes serotype 4b str. CLIP 80459
# HLA-B*45:06 = test: as above; conditions: source organism: Listeria monocytogenes serotype 4b str. CLIP 80459
# HLA-A*31:01 [14] = test: as above; conditions: source organism: Listeria monocytogenes serotype 4b str. CLIP 80459
# HLA-B*15:42 = test: as above; conditions: source organism: Listeria monocytogenes serotype 4b str. CLIP 80459
# HLA-A*68:23 = test: as above; conditions: source organism: Listeria monocytogenes serotype 4b str. CLIP 80459
# [15] = source organism: Mycobacterium tuberculosis str. Haarlem
# [16] = source organism: Listeria monocytogenes EGD-e
# [17] = source organism: Vibrio cholerae
# [18] = source organism: Giardia lamblia ATCC 50803
# [19] = source organism: Vibrio vulnificus
# [20] = source organism: Yersinia pestis Nepal516
# [21] = source organism: Zaire ebolavirus
# [22] = source organism: Influenza A virus (A/chicken/Fujian/25/00(H9N2))
sequence,measurement,setting,value
FHARFVQAL,Kd,HLA-B*07:02 [1]; [15],≥ 20000 nM
same,Kd,HLA-B*44:02; [15],≥ 20000 nM
same,Kd,HLA-B*57:01,≥ 20000 nM
same,Kd,HLA-B*27:05; [15],≥ 20000 nM
same,Kd,HLA-A*31:01 [2]; [15],≥ 20000 nM
same,Kd,HLA-A*03:01; [15],≥ 20000 nM
same,Kd,HLA-B*39:01,55.6 nM
same,Kd,HLA-B*46:01; [15],≥ 20000 nM
same,Kd,HLA-A*02:01 [3]; [15],≥ 20000 nM
same,Kd,HLA-B*58:01; [15],≥ 20000 nM
same,Kd,HLA-A*01:01; [15],≥ 20000 nM
same,Kd,HLA-B*15:01 [4]; [15],≥ 20000 nM
FLLENAAYL,Kd,HLA-C*12:03,291 nM
same,Kd,HLA-C*07:02; source organism: Homo sapiens,354 nM
FLPNDFFPSV,IC50,HLA-A*02:01 [5]; source organism: Hepatitis B virus,1.1 nM
HVDIRTLED,IC50,HLA-A*02:01 [5]; source organism: Human papillomavirus 16,25000 nM
ISPRNYFTF,Kd,HLA-A*24:02 [6]; source organism: Toxoplasma gondii,≤ 1 nM
KAAETYHVF,Kd,HLA-C*05:01; [16],≥ 20000 nM
same,Kd,HLA-C*15:02; [16],36 nM
same,Kd,HLA-B*58:01; source organism: Listeria monocytogenes,22 nM
KLIDRTESL,IC50,HLA-A*02:01 [5]; source organism: Homo sapiens,102 nM
KLTEEIIKL,Kd,HLA-A*69:01; [17],2210 nM
same,Kd,HLA-C*15:02; source organism: Vibrio cholerae MAK 757,≥ 20000 nM
same,Kd,HLA-A*02:01 [3]; [17],42.1 nM
KRVDWSVEY,Kd,HLA-A*11:01 [7]; source organism: SARS-CoV1,8740 nM
same,Kd,HLA-B*27:05; source organism: SARS-CoV1,258 nM
same,Kd,HLA-C*07:02; source organism: SARS-CoV1,261 nM
same,Kd,HLA-B*15:01 [4]; source organism: SARS-CoV1,2720 nM
LYLYVPFLW,Kd,HLA-A*24:02 [6]; source organism: Bacillus cereus 03BB108,55 nM
MIYELCTFR,Kd,HLA-B*07:02 [1]; [18],≥ 20000 nM
same,Kd,HLA-B*44:02; [18],≥ 20000 nM
same,Kd,HLA-B*27:05; [18],≥ 20000 nM
same,Kd,HLA-B*08:02,≥ 20000 nM
same,Kd,HLA-B*15:09; [18],≥ 20000 nM
same,Kd,HLA-A*03:01; [18],844 nM
same,Kd,HLA-B*18:01,≥ 20000 nM
same,Kd,HLA-B*40:01; [18],≥ 20000 nM
same,Kd,HLA-A*02:01 [3]; [18],≥ 20000 nM
same,Kd,HLA-B*58:01; [18],≥ 20000 nM
same,Kd,HLA-A*01:01; [18],≥ 20000 nM
same,Kd,HLA-B*15:01 [4]; [18],≥ 20000 nM
MLYQLLEAV,IC50,HLA-B*08:01; source organism: Vaccinia virus Copenhagen,≥ 303000 nM
MQACPVDAI,Kd,HLA-A*02:06,1.3 nM
same,Kd,HLA-A*02:01 [8]; source organism: Burkholderia orbicola,8.6 nM
QSDIAGAIH,Kd,HLA-B*07:02 [1]; [19],≥ 20000 nM
same,Kd,HLA-A*11:01 [7]; [19],≥ 20000 nM
same,Kd,HLA-B*44:02; [19],≥ 20000 nM
same,Kd,HLA-A*69:01; [19],≥ 20000 nM
same,Kd,HLA-B*27:05; [19],≥ 20000 nM
same,Kd,HLA-A*24:02 [6]; [19],≥ 20000 nM
same,Kd,HLA-A*31:01 [2]; [19],≥ 20000 nM
same,Kd,HLA-B*15:09; source organism: Vibrio vulnificus CMCP6,≥ 20000 nM
same,Kd,HLA-A*26:01,≥ 20000 nM
same,Kd,HLA-A*03:01; [19],≥ 20000 nM
same,Kd,HLA-B*40:01; [19],≥ 20000 nM
same,Kd,HLA-B*46:01; [19],≥ 20000 nM
same,Kd,HLA-A*02:01 [3]; [19],≥ 20000 nM
same,Kd,HLA-B*58:01; [19],≥ 20000 nM
same,Kd,HLA-A*01:01; [19],1660 nM
same,Kd,HLA-B*15:01 [4]; [19],≥ 20000 nM
RAMKALSSI,Kd,HLA-C*05:01; [20],≥ 20000 nM
same,Kd,HLA-C*15:02; [20],17 nM
same,Kd,HLA-C*14:02; [20],413 nM
same,Kd,HLA-B*07:02 [9],12.6 nM
same,Kd,HLA-B*51:01,253 nM
RGVRLHPLA,IC50,HLA-B*08:01; [21],≥ 242000 nM
same,IC50,HLA-A*02:01 [10],≥ 87800 nM
SAICSVVRR,IC50,HLA-A*02:01 [5]; source organism: Hepatitis B virus subtype adw2,1430 nM
SFKAALSSL,IC50,HLA-A*24:02 [11],668 nM
same,IC50,HLA-B*08:01; [21],45600 nM
same,IC50,HLA-A*02:01 [10],≥ 358000 nM
same,IC50,HLA-B*15:01 [12],15200 nM
SGKNIKRTL,IC50,HLA-B*08:01; [21],63600 nM
SVAHSAYEL,Kd,HLA-A*68:02,≤ 0.1 nM
TVFYNIPPM,Kd,HLA-C*14:02; source organism: Human herpesvirus 4 strain B95-8,3 nM
VLEKGIPTL,IC50,HLA-A*02:01 [5]; source organism: Rhinovirus A,200 nM
VRKCLQLIF,Kd,HLA-C*07:02; source organism: Saccharomyces cerevisiae,53 nM
WMMAMRYPI,Kd,HLA-C*06:02,≥ 20000 nM
same,Kd,HLA-C*05:01; [22],≥ 20000 nM
same,Kd,HLA-C*07:02; [22],1840 nM
same,Kd,HLA-A*02:01 [8]; [22],0.2 nM
YTYDLAEYR,Kd,HLA-B*83:01,≥ 5000 nM
same,Kd,HLA-A*11:01 [13],21.3 nM
same,Kd,HLA-B*45:06,≥ 5000 nM
same,Kd,HLA-A*31:01 [14],8.3 nM
same,Kd,HLA-B*15:42,≥ 5000 nM
same,Kd,HLA-A*68:23,≤ 0.1 nM
